The results in this text go back to publication PMC10786919, “Design-rules for stapled peptides with in vivo activity and their application to Mdm2/X antagonists” (Nature Communications, 2024).

Chain of human Mdm2 (1-125) (human) (Q00987 1-125): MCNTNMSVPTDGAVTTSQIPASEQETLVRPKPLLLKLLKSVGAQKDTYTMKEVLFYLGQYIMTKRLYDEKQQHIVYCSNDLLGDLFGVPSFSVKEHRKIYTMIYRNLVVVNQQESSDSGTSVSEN

One test concerns the target human Mdm2 (1-125) (human). Nature of the test: fluorescence polarisation.
Conditions: not given
(In general: In fluorescence polarisation assays a small probe gives low polarisation when free and higher when bound to something large.)
azide-ATSP-7041 (MP-081) (peptide): the Kd came to 5 nM.

For another test, the target named is human Mdm2 1-125 (human). Nature of the test: fluorescence polarisation.
Chain of human Mdm2 1-125 (human) (Q00987 1-125): as above
Conditions: not given
On to AZIDE-ATSP-7041 (A8 TO D-ALA) (peptide), for which the Kd was found to be 65.4 nM. As to AZIDE-ATSP-7041 (S12A) (peptide), the Kd turned out to be 36.2 nM. On the same count and under the same terms, then “AZIDE-ATSP-7041 (W7 TO 6-FLURO-1-TRP) (peptide)”, with 1 nM.

A further test concerns the target human Mdm2 (1-125). Nature of the test: fluorescence anisotropy competition assay (FAM-12/1 tracer). Conditions: tested in duplicate; parent MP-081 KD = 5 nM.
As to azide-ATSP-7041 (MP-081) L1E, the ratio to parent was < 2 x (within). Same read-out and setting: in the case of “azide-ATSP-7041 (MP-081) W7(DC-F) (DC-F = 3,4-Dichloro-Phe)” it was < 2 x (within). Same read-out and setting: in the case of azide-ATSP-7041 (MP-081) L1H it was < 2 x (within). The same measure, in the same setting: then “azide-ATSP-7041 (MP-081) T2hR (hR = homo-arginine)”, with < 2 x (within); and “azide-ATSP-7041 (MP-081) S12a (a = D-alanine)”, with < 2 x (within). In the case of azide-ATSP-7041 (MP-081) S12E, the ratio to parent was > 2 x stronger. On the same count and under the same terms, in the case of azide-ATSP-7041 (MP-081) A8W it was < 2 x (within); in that of azide-ATSP-7041 (MP-081) Q9H, < 2 x (within). Still for that read-out and setting: then azide-ATSP-7041 (MP-081) A8E, with < 2 x (within); and azide-ATSP-7041 (MP-081) T2K, with < 2 x (within). Still for that read-out and setting: in the case of “azide-ATSP-7041 (MP-081) W7(6F-1-W) (6F-1-W = 6-Fluoro-1-Trp)” it was > 2 x stronger. “azide-ATSP-7041 (MP-081) W7(TFm-F) (TFm-F = trifluoromethyl-Phe)”: the ratio to parent was > 2 x stronger. As to “azide-ATSP-7041 (MP-081) S12hR (hR = homo-arginine)”, the ratio to parent is < 2 x (within). Same read-out and setting: then “azide-ATSP-7041 (MP-081) A14hR (hR = homo-arginine)”, with < 2 x (within). Same read-out and setting: in the case of azide-ATSP-7041 (MP-081) A14E it was > 2 x stronger; in that of azide-ATSP-7041 (MP-081) S12H, < 2 x (within).

As to azide-ATSP-7041 (MP-081) Q9K, the ratio to parent is < 2 x (within). On the same count and under the same terms, then “azide-ATSP-7041 (MP-081) A13a (a = D-alanine)”, with < 2 x (within).

In another test the target is human Mdm2 1-125 (human). Nature of the test: fluorescence polarisation; competitive fluorescence anisotropy: unlabelled peptide titrated against 250 nM Mdm2 (1-125) with 50 nM FAM-labelled 12/1 peptide (FAM-…-NH2); PBS pH 7.4, 0.001% Tween-20; apparent Kd, geometric means.
Conditions: not given
As for AZIDE-ATSP-7041(W7A) (peptide), the Kd is 4600 nM. Same read-out and setting: in the case of AZIDE-ATSP-7041 (CBA10 TO A) (peptide) it was 115 nM; in that of AZIDE-ATSP-7041 (Q9W) (peptide), 86 nM.

Turning to NH2-EEE-AZIDE-SGS-PM2-EEE (peptide), the Kd is 2.4 nM.

Regarding AZIDE-ATSP-7041 (A8W) (peptide), the Kd came to 8.5 nM. Consider AZIDE-ATSP-7041 (L1 TO D-ALA) (peptide), for which the Kd is 8 nM. As for “AZIDE-ATSP-7041 (L1A, E5A, Q9A, S12A) (peptide)”, the Kd stood at 53.9 nM. Take AZIDE-ATSP-7041 (Y6F) (peptide): the Kd came to 3.3 nM. Same read-out and setting: in the case of AZIDE-ATSP-7041 (Q9A) (peptide) it was 54.3 nM; in that of AZIDE-ATSP-7041 (E5G) (peptide), 68.2 nM. Still for that read-out and setting: in the case of AZIDE-ATSP-7041 (E5W) (peptide) it was 98.5 nM; in that of AZIDE-ATSP-7041 (L1G) (peptide), 9.5 nM; in that of “AZIDE-ATSP-7041 (L1R, Q9R, S12K) (peptide)”, 64.6 nM. Regarding AZIDE-ATSP-7041 (S12G) (peptide), the Kd is 12.4 nM.

With “AZIDE-ATSP-7041 (W7 TO 3,4-DICHLORO-PHE) (peptide)”, the Kd is 5.3 nM. Still for that read-out and setting: then “AZIDE-ATSP-7041 (L1R, Y6F, L9R) (peptide)”, with 117 nM. The same measure, in the same setting: in the case of AZIDE-ATSP-7041 (Q9G) (peptide) it was 19.1 nM; in that of AZIDE-ATSP-7041 (E5P) (peptide), 7840 nM. Still for that read-out and setting: in the case of AZIDE-ATSP-7041 (A14E) (peptide) it was 0.7 nM; in that of AZIDE-ATSP-7041 (S12W) (peptide), 48 nM. Turning to AZIDE-ATSP-7041 (L1P) (peptide), the Kd is 22.6 nM.

Consider “AZIDE-ATSP-7041 (L1Y, E5Y, A8Y) (peptide)”, for which the Kd is 371 nM.

As to AZIDE-ATSP-7041 (T2 TO D-ALA) (peptide), the Kd was 70.5 nM.

On to AZIDE-ATSP-7041 (S12E) (peptide), for which the Kd amounted to 0.73 nM. On the same count and under the same terms, in the case of AZIDE-ATSP-7041 (T2V) (peptide) it was 71.5 nM; in that of AZIDE-ATSP-7041 (Q9 TO D-ALA) (peptide), 18.5 nM; in that of AZIDE-ATSP-7041(A13E) (peptide), 14.2 nM. Same read-out and setting: then “AZIDE-ATSP-7041 (W7 TO TRIFLUOROMETHYL-PHE) (peptide)”, with 1 nM; and AZIDE-ATSP-7041 (T2W) (peptide), with 204 nM. Consider AZIDE-ATSP-7041 (Q9P) (peptide), for which the Kd was 45.8 nM. Still for that read-out and setting: in the case of AZIDE-ATSP-7041 (E5 TO D-ALA) (peptide) it was 11.5 nM; in that of “AZIDE-ATSP-7041 (L1R, A8R, A13R) (peptide)”, 9.1 nM. Same read-out and setting: then AZIDE-ATSP-7041 (S12P) (peptide), with 50.1 nM; and “AZIDE-ATSP-7041 (L1D, E5D, A8D) (peptide)”, with 5.2 nM. Same read-out and setting: then AZIDE-ATSP-7041 (E5A) (peptide), with 47.7 nM; and AZIDE-ATSP-7041 (L1W) (peptide), with 16.5 nM.

A further test addresses human Mdm2 1-125 (human). Described as above.
Conditions: not given
This is another data set of the same source.
With AZIDE-ATSP-7041 (T2A,E5A) (peptide), the Kd came out at 272 nM. Consider AZIDE-ATSP-7041 (L1A,S12A) (peptide), for which the Kd amounted to 16.1 nM. Same read-out and setting: then AZIDE-ATSP-7041 (E5A,Q9A) (peptide), with 38 nM; and AZIDE-ATSP-7041 (E5A,S12A) (peptide), with 30.9 nM. The same measure, in the same setting: in the case of “AZIDE-KK-ATSP-7041 (L1A,T2A,E5A,Q9A,S12A) (peptide)” it was 156 nM; in that of AZIDE-ATSP-7041 (T2A,S12A) (peptide), 37.1 nM. Turning to AZIDE-ATSP-7041 (L1A,T2A) (peptide), the Kd was determined as 26.5 nM. In the case of AZIDE-ATSP-7041 (E5L, A8L) (peptide), the Kd worked out at 36.2 nM. Same read-out and setting: then AZIDE-ATSP-7041 (T2A,Q9A) (peptide), with 79.5 nM; and AZIDE-ATSP-7041 (L1A,E5A) (peptide), with 41.7 nM. On the same count and under the same terms, then “AZIDE-ATSP-7041 (L1A, E5A, Q9A) (peptide)”, with 96 nM; and AZIDE-ATSP-7041 (L1A,Q9A) (peptide), with 21.1 nM. Still for that read-out and setting: in the case of AZIDE-ATSP-7041 (Q9A,S12A) (peptide) it was 45.3 nM; in that of AZIDE-ATSP-7041 (E5A) (peptide), 48.7 nM.

A further test addresses human Mdm2 (1-125) (human). Nature of the test: fluorescence polarisation; competitive fluorescence anisotropy: 250 nM Mdm2 (1-125) with 50 nM FAM-labeled 12/1 peptide, competing peptide titrated; apparent Kd from the fit with Kd1 = […]; PBS pH 7.4, 0.001% Tween-20; geometric means.
Conditions: not given
On to azide-ATSP-7041 (E5P) (peptide), for which the Kd was 7800 nM. On the same count and under the same terms, then “ALRN-6924 (Sulanemadlin, MP-4897) (peptide)”, with 2.5 nM; and “azide-ATSP-7041 (L1N, E5N, A8N, S12N, A13N, A14N) (MP-359) (peptide)”, with 15 nM; and “azide-ATSP-7041 with Cba10 substituted by Ala (peptide)”, with 115 nM. The same measure, in the same setting: in the case of “azide-ATSP-7041 (L1D, E5D, A8D) (MP-495) (peptide)” it was 5 nM; in that of “azide-ATSP-7041 with Cba10 substituted by Leu (peptide)”, 56 nM.

A further test addresses human Mdm2 (1-125) (human). Described as above.
Conditions: not given
This is another data set of the same source.
As to “ALRN-6924 (Sulanemadlin, MP-4897) (peptide)”, the Kd came to 2.46 nM.
